Measurements published in patent US20230051715A1 (MABWELL THERAPEUTICS, published 2023).
Values belong to the binder of their own block, whether it stands above or below them.

Experiments:
[1] = target: T1, full-length human C1s (produced in house) (human, UniProt P09871 16-688); test: BLI (Octet RED96e), antibody on AHC biosensor; C1s Species: Human; R^2 0.9999
T1 construct: Called full-length; Partly auto-cleaved at R422-I423 on blots; also called HuC1s; Hu C1s
T1 sequence: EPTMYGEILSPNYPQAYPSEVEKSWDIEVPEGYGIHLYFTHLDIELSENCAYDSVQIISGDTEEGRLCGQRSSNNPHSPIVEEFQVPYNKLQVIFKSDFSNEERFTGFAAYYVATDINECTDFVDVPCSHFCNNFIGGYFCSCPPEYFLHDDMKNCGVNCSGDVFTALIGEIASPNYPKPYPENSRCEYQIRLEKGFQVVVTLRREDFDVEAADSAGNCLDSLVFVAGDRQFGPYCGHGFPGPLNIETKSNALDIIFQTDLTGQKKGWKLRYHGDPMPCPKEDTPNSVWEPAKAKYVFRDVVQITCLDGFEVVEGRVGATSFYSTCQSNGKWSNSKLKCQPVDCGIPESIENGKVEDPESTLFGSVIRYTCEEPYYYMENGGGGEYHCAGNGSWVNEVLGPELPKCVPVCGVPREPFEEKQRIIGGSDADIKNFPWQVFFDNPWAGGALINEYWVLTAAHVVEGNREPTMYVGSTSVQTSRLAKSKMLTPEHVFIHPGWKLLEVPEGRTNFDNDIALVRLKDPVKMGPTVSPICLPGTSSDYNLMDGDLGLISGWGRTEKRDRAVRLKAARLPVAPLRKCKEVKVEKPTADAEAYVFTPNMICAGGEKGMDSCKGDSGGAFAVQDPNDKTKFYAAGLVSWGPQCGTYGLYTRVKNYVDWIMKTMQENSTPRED
Description: (§1) At last, analyte was dissociated in 1×KB for 360 sec. Data analysis was done using OCTET® Data Analysis HT Software (Sartorius AG).

[2] = target: T2, rat C1s (produced in house) (rat, UniProt Q6P6T1 16-688); test: BLI (Octet RED96e), antibody on AHC biosensor; C1s Species: Rat; R^2 0.9718
T2 construct: also called RaC1s
T2 sequence: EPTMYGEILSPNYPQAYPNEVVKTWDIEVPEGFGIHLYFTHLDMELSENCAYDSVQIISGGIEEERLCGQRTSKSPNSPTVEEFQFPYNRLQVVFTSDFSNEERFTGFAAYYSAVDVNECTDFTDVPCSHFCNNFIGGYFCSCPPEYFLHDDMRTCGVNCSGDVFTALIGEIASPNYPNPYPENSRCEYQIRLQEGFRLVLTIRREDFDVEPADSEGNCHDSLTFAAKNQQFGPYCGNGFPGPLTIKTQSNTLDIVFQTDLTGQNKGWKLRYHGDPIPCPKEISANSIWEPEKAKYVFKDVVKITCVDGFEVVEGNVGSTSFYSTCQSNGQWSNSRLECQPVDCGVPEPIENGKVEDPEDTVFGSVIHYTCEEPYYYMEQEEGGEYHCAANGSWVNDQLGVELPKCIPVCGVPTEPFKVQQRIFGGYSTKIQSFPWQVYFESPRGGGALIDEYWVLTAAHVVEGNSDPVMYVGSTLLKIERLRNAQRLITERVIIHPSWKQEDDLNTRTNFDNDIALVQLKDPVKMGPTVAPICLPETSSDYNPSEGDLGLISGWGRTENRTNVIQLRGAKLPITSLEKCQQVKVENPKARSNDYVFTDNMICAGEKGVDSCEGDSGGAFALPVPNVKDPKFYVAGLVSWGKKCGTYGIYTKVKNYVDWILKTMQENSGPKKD
Description: as §1

[3] = target: T3, human C1s proenzyme (CompTech A103) (human, UniProt P09871 16-688); test: BLI (Octet RED96e), antibody on AHC biosensor; HuC1s Form: Proenzyme; R^2 0.9994
T3 construct: also called proenzyme human C1s (native C1s)
T3 sequence (looked up): T1 sequence
Experimental: Bio-Layer Interferometry technology was used for anti-C1s antibody affinity measurement and binding kinetics determinations with OCTET® RED96e system (Sartorius AG). Pre-hydrated Anti-Human IgG Fc Capture (AHC) biosensors were first equilibrated in 1×KB (Kinetic Buffer, 1×PBS pH 7.4+0.02% Tween-20+0.1% BSA) for 120 sec for the first baseline, followed by loading with […] anti-C1s antibody (2-7, FIG. 3A; 2-8, FIG. 3B; hz2-7(H1L2), FIG. 3C; hz2-8(H1L2 G80A/T82A, FIG. 3D) onto AHC biosensors for 240 sec. Then, the second baseline signal was established for 120 sec before association with various concentrations of active human C1s (CompTech A104) for 240-360 sec. At last, analyte was dissociated in 1×KB for 360 sec. Anti-C1s antibodies 2-7 and 2-8 were also analyzed against human C1s proenzyme (CompTech A103) (data not shown). Data analysis was carried out using OCTET® Data Analysis HT Software (Sartorius AG). KD, kₒₙ, koff and R² values were calculated for each antibody and target combination, as summarized in FIG. 3E showing high affinity binding with KD values in the low nanomolar to picomolar range.

- Kd [1]: 0.12 nM
- koff [1]: 4.6e-05 s⁻¹
- kon [1]: 390000 M⁻¹ s⁻¹
B1: Anti-C1s antibody hz2-7(H1L2) (antibody, V domains shown)
VH: EVQLLESGGGLVQPGGSLRLSCAASGFTFSNYFMNWVRQAPGKGLEWVSEIRLKFTNYATHYADSVKGRFTISRDDSKSTLYLQMNSLRAEDTAVYYCTRDYGSRNGYFDYWGQGTLVTVSS
VL: DIVMTQTPLSLPVTPGEPASISCRSSKSLLHSNGNTFLYWFLQKPGQSPQLLIYRMSNLASGVPDRFSGSGSGTDFTLKISRVEAEDVGVYYCMQHLEYPYTFGGGTKLEIKR
notes: Humanized, human IgG1 / kappa; also called hz2-7(1L2)

- Kd [2]: 16 nM
- koff [2]: 0.0012 s⁻¹
- kon [2]: 75000 M⁻¹ s⁻¹
B2: Anti-C1s antibody hz2-8 (H1L2 G80A/T82A) (antibody, V domains shown)
VH: QVQLVQSGAEVKKPGASVKVSCKASGFNIKEYYMHWVRQAPEQGLEWMGWIDPENADAIYAQKFQGRVTITADTSTNTAYMELSSLRSEDTAVYYCARSRLFFAYWGQGTLVTVSS
VL: DIQMTQSPKSLSASVGDRVTITCRASQDVRTALDWYQQKPGQSPKLLIYSASYRYSGVPSRFSGSGSGTDFTLTISSLQPEDFATYYCQQQYTTPYTFGQGTKLEIKR
notes: Humanized variant with G80A and T82A in HC CDR2 (already in the entry), human IgG1 / kappa

- Kd [3]: 0.14 nM
- koff [3]: 4.8e-05 s⁻¹
- kon [3]: 350000 M⁻¹ s⁻¹
B3: Anti-C1s antibody 2-7 (antibody, human IgG1, kappa, V domains shown)
VH: EVKLEESGGGLVPPGGSMKLSCVASGFTFSNYFMNWVRQSPEKGLEWVAEIRLKFTNYATHYAESVEGRFTISRDDSKSSVYLQMNNLRAEDTGIYYCTRDYGSRNGYFDYWGQGTTLTVSS
VL: DIVMTQAAPSVPVTPGESVSISCRSSKSLLHSNGNTFLYWFLQRPGQSPQLLIYRMSNLASGVPDRFSGSGSGTAFTLRVSRVEAEDVGIYYCMQHLEYPYTFGGGTKLEIKT
notes: the HC/LC entries may hold it too; also called clone 2-7
